Data set [1] has as its target T1, CsESE3 (Citrus sinensis? ('Newhall' navel …, UniProt A0ACB8NL77 1-192)). As to the kind of experiment: EMSA; EMSA as in Gong et al. 2021b; buffer, salt, pH and temperature not given; 5' FAM probes, 100 uM unlabeled competitor stocks, 7x/14x/28x excess. As to conditions: protein: recombinant; tags: N-terminal His (pETDuet); label: 5' FAM (top strand); blunt. Background: In EMSA bound probe runs differently from free probe, usually more slowly.

The target of data set [2] is T1, CsESE3. As to the kind of experiment: EMSA; shift attenuated by excess (up to 28x) cold probe; EMSA as in Gong et al. 2021b; buffer, salt, pH and temperature not given; 5' FAM probes, 100 uM unlabeled competitor stocks, 7x/14x/28x excess. As to conditions: protein: recombinant; tags: N-terminal His (pETDuet); label: 5' FAM (top strand); blunt.

T1 sequence (A0ACB8NL77 entry or part of it): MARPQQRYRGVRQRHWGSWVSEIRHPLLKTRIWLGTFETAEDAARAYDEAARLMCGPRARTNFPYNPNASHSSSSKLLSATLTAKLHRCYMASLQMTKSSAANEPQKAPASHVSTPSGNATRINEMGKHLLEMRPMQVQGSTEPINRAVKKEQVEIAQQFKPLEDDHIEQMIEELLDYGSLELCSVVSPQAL

B1: Probe_PLIP_Like (CsPLIP_Like promoter GCC-box) (dsDNA)
DNA 1: AAATAAACTAAGCCGCCTTGTCATATT
DNA 2: AATATGACAAGGCGGCTTAGTTTATTT
With B1, the binding result with CsESE3 [1] is recorded as “binds”.

B2: Probe_PLIP (CsPLIP1 promoter GCC-box) (dsDNA)
DNA 1: GAGCCTCACTAGCCGCCATTGTCCCCG
DNA 2: CGGGGACAATGGCGGCTAGTGAGGCTC
For B2, in the data set with CsESE3 [2], the binding result is given as “binds”.

These data come from publication PMC9755798, “Transcription factor CsESE3 positively modulates both jasmonic acid and wax biosynthesis in citrus”.
